IntAct's records for PubMed 22904686

B1: Latent membrane protein 1 (Epstein-Barr virus (strain B95-8) (HHV-4)), P03230 (parent)
chain: MEHDLERGPPGPRRPPRGPPLSSSLGLALLLLLLALLFWLYIVMSDWTGGALLVLYSFALMLIIIILIIFIFRRDLLCPLGALCILLLMITLLLIALWNLHGQALFLGIVLFIFGCLLVLGIWIYLLEMLWRLGATIWQLLAFFLAFFLDLILLIIALYLQQNWWTLLVDLLWLLLFLAILIWMYYHGQRHSDEHHHDDSLPHPQQATDDSGHESDSNSNEGRHHLLVSGAGDGPPLCSQNLGAPGGGPDNGPQDPDNTDDNGPQDPDNTDDNGPHDPLPQDPDNTDDNGPQDPDNTDDNGPHDPLPHSPSDSAGNDGGPPQLTEEVENKGGDQGPPLMTDGGGGHSHDSGHGGGDPHLPTLLLGSSGSGGDDDDPHGPVQLSYYD

Variants of: B1
Conditions: with tnik_human TNIK

Variant	effect of a mutation on the interaction
Y384G	disrupting interaction strength
